Assay [1] concerns the target HLA-B*54:01. The assay can be described thus: IEDB peptide-MHC binding, purified MHC/competitive/radioactivity; filed as Kd, often an IC50 or EC50 that approximates it; ≥ and ≤ were set here for values at or beyond the usual limits of such assays.
Assay [2] concerns the target HLA-B*51:01. The assay can be described thus: IEDB peptide-MHC binding, purified MHC/competitive/radioactivity; ≥ and ≤ were set here for values at or beyond the usual limits of such assays.
In assay [3] the target is HLA-B*53:01. The description is as above.
In assay [4] the target is HLA-B*07:02. Described as above.
In assay [5] the target is HLA-B*35:01. The assay is described as above.
The target in assay [6] is HLA-B*53:01. The experiment in a line: IEDB peptide-MHC binding, purified MHC/competitive/radioactivity; filed as Kd, often an IC50 or EC50 that approximates it; ≥ and ≤ were set here for values at or beyond the usual limits of such assays.
Assay [7] concerns the target HLA-B*35:01. The assay is described as above.
The target in assay [8] is HLA-B*54:01. The experiment in a line: IEDB peptide-MHC binding, purified MHC/competitive/radioactivity; ≥ and ≤ were set here for values at or beyond the usual limits of such assays.
In assay [9] the target is HLA-B*07:02. The experiment in a line: IEDB peptide-MHC binding, purified MHC/competitive/radioactivity; filed as Kd, often an IC50 or EC50 that approximates it; ≥ and ≤ were set here for values at or beyond the usual limits of such assays.
In assay [10] the target is HLA-B*51:01. The assay is described as above.
Where [11] appears, read: source organism: Human immunodeficiency virus 1.
Where [12] appears, read: source organism: Candida albicans.
[13] abbreviates: source organism: Human immunodeficiency virus type 1 (RF/HAT ISOLATE).
Setting [14] is: source organism: Hepatitis C virus (isolate Taiwan).
The mark [15] stands for this setting: source organism: Human papillomavirus type 6b.

Here are results for 18 sequences from the Immune Epitope Database (IEDB).

For orientation: Kd means the concentration at which binding is half-saturated. As a reminder, the IC50 is the midpoint of a concentration-inhibition curve. With CPLERFAEL, the Kd in assay [1] (source organism: Homo sapiens) amounted to 1000 nM. Also, the IC50 in assay [2] (source organism: Homo sapiens) was 6.2 nM; in assay [3] (source organism: Homo sapiens) it was 198 nM; in assay [4] (source organism: Homo sapiens) it was 68 nM; in [5] (source organism: Homo sapiens) it was 103 nM.

Regarding EPGPVTAQV, the dissociation constant Kd in assay [6] (source organism: Homo sapiens) and in [7] (source organism: Homo sapiens) was not below 25000 nM throughout. The IC50 worked out at 28 nM in assay [2] (source organism: Homo sapiens), 476 nM in assay [8] (source organism: Homo sapiens) and 902 nM in assay [4] (source organism: Homo sapiens).

For the sequence FAVRPQVPL, the values for the Kd in assay [6] (setting [11]), in [1] (setting [11]) and in [9] (setting [11]) were 6170 nM, 4250 nM and 1300 nM, respectively. Moreover, the 50% inhibitory concentration (IC50) came out at 591 nM in assay [2] (setting [11]) and 148 nM in assay [5] (setting [11]).

FPASFFIKL: the IC50 in assay [2] (setting [12]) was found to be 8.7 nM; in [3] (setting [12]), 6.7 nM; in assay [8] (setting [12]), 15 nM; in assay [4] (setting [12]) it was 14 nM; in assay [5] (setting [12]) it was 15 nM.

FPISPIETV: the values for the Kd in assay [9] (setting [13]) and in assay [7] (setting [13]) were 3480 nM and 1050 nM, respectively. Besides, the values for the half-maximal inhibitory concentration (IC50) in assay [2] (setting [13]), in assay [3] (setting [13]) and in assay [8] (setting [13]) were 147 nM, 251 nM and 9.8 nM, respectively.

In the case of FPPEGVSIW, the Kd in [1] (source organism: Homo sapiens) is 3850 nM; in assay [9] (source organism: Homo sapiens), not below 25000 nM; in [7] (source organism: Homo sapiens) it was 4240 nM. Besides, the results for the IC50 in assay [2] (source organism: Homo sapiens) and in assay [3] (source organism: Homo sapiens) were 21 nM and 16 nM, respectively.

Consider FPRFKFVWV, for which the results for the Kd in assay [6] (setting [12]) and in assay [7] (setting [12]) were 3510 nM and not below 25000 nM, respectively. The IC50 in [2] (setting [12]) was determined as 136 nM; in [8] (setting [12]), 17 nM; in assay [4] (setting [12]), 51 nM.

Regarding FPVRPQVPC, the Kd in assay [10] (setting [11]), in assay [6] (setting [11]) and in [7] (setting [11]) was 1300 nM in each case. For the same sequence, the IC50 in [8] (setting [11]) was 65.8 nM; in assay [4] (setting [11]) it was 380 nM.

Turning to FPVRPQVPI, the IC50 was 14.8 nM in assay [2] (setting [11]); 30.2 nM in assay [3] (setting [11]); 1.6 nM in assay [8] (setting [11]); 22.4 nM in [4] (setting [11]); 118 nM in assay [5] (setting [11]).

On to FPVRPQVPL, for which the IC50 in [2] (setting [11]) came out at 679 nM; in [3] (setting [11]), 192 nM.

Regarding FPVRPQVPM, the Kd in assay [10] (setting [11]) is 1300 nM. Moreover, the IC50 in assay [3] (setting [11]) amounted to 32.5 nM; in assay [8] (setting [11]), 79 nM; in assay [4] (setting [11]) it was 3.8 nM; in [5] (setting [11]), 13 nM.

For the sequence FPVRPQVPQ, the Kd in assay [10] (setting [11]) and in [6] (setting [11]) was 1300 nM in each case. Moreover, the IC50 in [8] (setting [11]) is 79 nM; in assay [4] (setting [11]) it was 380 nM; in assay [5] (setting [11]) it was 394 nM.

Take FPVRPQVPT: the Kd in [10] (setting [11]) and in [6] (setting [11]) was 1300 nM throughout. For the same sequence, the IC50 in assay [8] (setting [11]) was 1.8 nM; in assay [4] (setting [11]) it was 380 nM; in [5] (setting [11]), 26 nM.

For FPYLVAYQA, the results for the Kd in assay [6] (setting [14]) and in assay [9] (setting [14]) were 1710 nM and 18000 nM, respectively. Besides, in assay [2] (setting [14]), the IC50 was determined as 57 nM.

As for HPEDTGQVF, the Kd in [10] (source organism: Homo sapiens) is 1960 nM; in assay [1] (source organism: Homo sapiens) it was not below 25000 nM. Also, the IC50 in [3] (source organism: Homo sapiens) stood at 404 nM; in [5] (source organism: Homo sapiens), 206 nM.

On to IPEPEGPDA, for which the Kd in assay [10] (source organism: Homo sapiens) was 5500 nM; in assay [6] (source organism: Homo sapiens), not below 25000 nM; in assay [1] (source organism: Homo sapiens), not below 5000 nM; in [9] (source organism: Homo sapiens), not below 25000 nM; in [7] (source organism: Homo sapiens), not below 25000 nM.

In the case of IPFLTKFKL, the dissociation constant (Kd) in [9] (setting [15]) amounted to 2390 nM; in assay [7] (setting [15]) it was 9000 nM. Besides, the figures for the IC50 in [2] (setting [15]), in assay [3] (setting [15]) and in assay [8] (setting [15]) were 31 nM, 581 nM and 833 nM, respectively.

On to IPLYRNGDF, for which the Kd in [10] (source organism: Homo sapiens) was 5500 nM; in [6] (source organism: Homo sapiens), not below 25000 nM; in [1] (source organism: Homo sapiens), not below 25000 nM; in [7] (source organism: Homo sapiens), not below 25000 nM. For the same sequence, in assay [4] (source organism: Homo sapiens), the IC50 was 60 nM.
